Assay results reported in US20110008829A1 (University of California, published 2011).

T1: N-terminal GST-tagged HMGS with 1 C-terminal SH3 peptide ligand (Saccharomyces cerevisiae, UniProt P54839 1-491)
T1 construct: Bait of the GST pull-down; also called HMGS bait with 1 SH3 ligand; not shown: glutathione S-transferase (GST) tag at the N-terminus
T1 sequence: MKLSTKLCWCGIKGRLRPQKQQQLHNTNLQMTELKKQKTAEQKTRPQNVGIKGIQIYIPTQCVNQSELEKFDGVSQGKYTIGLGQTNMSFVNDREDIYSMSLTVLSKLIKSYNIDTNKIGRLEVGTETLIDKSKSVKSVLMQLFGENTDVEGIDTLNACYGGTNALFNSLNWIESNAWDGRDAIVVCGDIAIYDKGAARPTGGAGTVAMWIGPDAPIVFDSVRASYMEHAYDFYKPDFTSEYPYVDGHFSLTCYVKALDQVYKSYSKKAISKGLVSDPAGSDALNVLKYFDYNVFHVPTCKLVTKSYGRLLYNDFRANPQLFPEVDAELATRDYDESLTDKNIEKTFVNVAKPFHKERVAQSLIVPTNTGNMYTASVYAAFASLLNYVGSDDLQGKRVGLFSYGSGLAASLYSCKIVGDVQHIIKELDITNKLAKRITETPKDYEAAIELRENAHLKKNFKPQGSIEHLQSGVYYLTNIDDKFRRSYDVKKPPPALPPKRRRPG

T2: Syn PDZ (PDZ domain of mouse α-syntrophin, residues 77-171) (mouse, UniProt Q61234 77-171)
T2 construct: range 77-171; also called Mouse α-syntrophin (syn) PDZ domain
T2 sequence (looked up): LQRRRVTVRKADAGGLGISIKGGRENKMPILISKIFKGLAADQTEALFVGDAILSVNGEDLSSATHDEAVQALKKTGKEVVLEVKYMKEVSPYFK

B1: HMGR alone (enzyme, Saccharomyces cerevisiae, UniProt P12683 554-1054, looked up)
chain: VLTNKTVISGSKVKSLSSAQSSSSGPSSSSEEDDSRDIESLDKKIRPLEELEALLSSGNTKQLKNKEVAALVIHGKLPLYALEKKLGDTTRAVAVRRKALSILAEAPVLASDRLPYKNYDYDRVFGACCENVIGYMPLPVGVIGPLVIDGTSYHIPMATTEGCLVASAMRGCKAINAGGGATTVLTKDGMTRGPVVRFPTLKRSGACKIWLDSEEGQNAIKKAFNSTSRFARLQHIQTCLAGDLLFMRFRTTTGDAMGMNMISKGVEYSLKQMVEEYGWEDMEVVSVSGNYCTDKKPAAINWIEGRGKSVVAEATIPGDVVRKVLKSDVSALVELNIAKNLVGSAMAGSVGGFNAHAANLVTAVFLALGQDPAQNVESSNCITLMKEVDGDLRISVSMPSIEVGTIGGGTVLEPQGAMLDLLGVRGPHATAPGTNARQLARIVACAVLAGELSLCAALAAGHLVQSHMTHNRKPAEPTKPNNLDATDINRLKDGSVTCIKS
notes: Control prey of the GST pull-down; also called HMGR prey without an N-terminal SH3 domain
B2: N-terminal GST-tagged HMGS with 0 C-terminal SH3 peptide ligands (enzyme, UniProt P54839 1-491, looked up)
chain: MKLSTKLCWCGIKGRLRPQKQQQLHNTNLQMTELKKQKTAEQKTRPQNVGIKGIQIYIPTQCVNQSELEKFDGVSQGKYTIGLGQTNMSFVNDREDIYSMSLTVLSKLIKSYNIDTNKIGRLEVGTETLIDKSKSVKSVLMQLFGENTDVEGIDTLNACYGGTNALFNSLNWIESNAWDGRDAIVVCGDIAIYDKGAARPTGGAGTVAMWIGPDAPIVFDSVRASYMEHAYDFYKPDFTSEYPYVDGHFSLTCYVKALDQVYKSYSKKAISKGLVSDPAGSDALNVLKYFDYNVFHVPTCKLVTKSYGRLLYNDFRANPQLFPEVDAELATRDYDESLTDKNIEKTFVNVAKPFHKERVAQSLIVPTNTGNMYTASVYAAFASLLNYVGSDDLQGKRVGLFSYGSGLAASLYSCKIVGDVQHIIKELDITNKLAKRITETPKDYEAAIELRENAHLKKNFKPQGSIEHLQSGVYYLTNIDDKFRRSYDVKK
notes: Bait of the GST pull-down; also called HMGS bait with 0 SH3 ligands; not shown: glutathione S-transferase (GST) tag at the N-terminus

How the values were obtained:
[1] = molecular target: T3, WASP GBD (GTPase Binding Domain of rat N-WASP, residues 196-274) (rat, UniProt O08816 196-274); test: method not described; footnote: affinities reported as measured in trans
T3 construct: range 196-274; also called rat N-WASP GBD
T3 sequence (O08816 196-274 limits assumed): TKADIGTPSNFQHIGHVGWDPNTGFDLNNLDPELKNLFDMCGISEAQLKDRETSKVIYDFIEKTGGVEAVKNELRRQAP

[2] = molecular target: T4, Crk SH3 (SH3 domain of mouse Crk, residues 134-191) (mouse, UniProt Q64010 134-191); test: as above
T4 construct: range 134-191; also called mouse Crk SH3 domain
T4 sequence (Q64010 134-191 limits assumed): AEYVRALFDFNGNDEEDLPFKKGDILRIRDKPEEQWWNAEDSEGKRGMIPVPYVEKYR

[3] = molecular target: T1, N-terminal GST-tagged HMGS with 1 …; test: GST pull-down, GST-HMGS as bait, HMGR as prey
From the text: (§1) As a direct test of engineered enzyme co-recruitment, the bottleneck enzymatic step of the mevalonate biosynthetic pathway (HMGR-catalyzed turnover of HMG-CoA to mevalonate) was targeted for flux improvement. A synthetic complex of HMGS and HMGR was created by recombining a varying number of SH3 (Src Homology 3 domain from the adapter protein CRK) interaction ligands to the C-terminus of HMGS and recombining an SH3 domain to the N-terminus of HMGR (FIG. 2a). This simple design also allowed for control over the relative ratio of these two enzymes at the resultant complex. The ability of these proteins to interact in an SH3-dependent manner was probed in a GST pull-down experiment (FIG. 2b). […] As prey, an SH3 domain was recombined to the N-terminus of HMGR and compared to HMGR alone. No significant interaction was observed between HMGS and HMGR without engineered SH3 interactions. However, HMGR with an N-terminal SH3 domain was pulled down by GST-tagged HMGS in a ligand-dependent manner. […] Thus, the relative stoichiometries of these two enzymes were controlled at the complex by varying the number of interaction ligands tethered to HMGS.

[4] = molecular target: T2, Syn PDZ (PDZ domain of mouse …); test: method not described; footnote: affinities reported as measured in trans
[5] = molecular target: T5, HMGR with an N-terminal SH3 domain (mouse; Saccharomyces cerevisiae, UniProt Q64010 134-191; P12683 554-1054); test: GST pull-down, GST-HMGS as bait, HMGR as prey
T5 construct: also called SH3 domain recombined to the N-terminus of HMGR; HMGR prey with an N-terminal SH3 domain
From the text: as §1

[6] = molecular target: B1; test: GST pull-down, GST-HMGS as bait, HMGR as prey
From the text: as §1

In the case of LVGALMHVMQKRSRAIHSSDEGEDQAGDEDED (also called GBD ligand) [GBD lig.], the Kd [1] is reported as 1000 nM.

Binder PPPALPPKRRRPG (also called SH3 peptide ligand) [SH3 lig.] has a Kd [2] of 100 nM.

B1: no binding [3].

Binder GVKESLV (also called PDZ ligand; GVKESLV) [PDZ lig.] has a Kd [4] of 8000 nM.

B2: no binding [5]; no binding [6].
